The record followed here is patent US20060141569A1, “Compositions and methods for the assay of G-protein coupled receptors and their ligands” (priority 2004, published 2006).

In general, Kd refers to the concentration at which binding is half-saturated. Higher therefore signals a looser complex. The Ki is the equilibrium dissociation constant of an inhibitor or competing ligand from its target. Read a high Ki as weaker binding.

Test [1] has as its target T1, CB1 receptor (Homo sapiens, UniProt P21554).
T1 construct: ER export signal […]; expressed in transfected cells; host or cells: CHEM-1 (RBL-2H3) cells, pHS vector
Kind of test: CB1 receptor FLIPR dose response in CB1-transfected CHEM-1 cells. Type of test: cell-based. The note with it: pHS vector (FIG. 10D).
Experimental: FIG. 10D is a graph depicting the agonist-induced CB1 receptor FLIPR® dose response for CB1-transfected CHEM-1 cells using the pHS vector.
Cells (50,000/well) were seeded in a 96 well FLIPR® plate (clear bottom, black wall TC plate) the day before the experiment, and then loaded with fluorescent calcium dye Fluo-4 or Indo-1 (Molecular Probes) and incubated for 30 minutes at 37° C. in the dark with Pluronic F-127 and Probenecid in HBSS buffer (with Ca^2+ and Mg^2+). The cells were then washed twice with HBSS and read for calcium mobilization after the ligand addition on FLEX Station or FLIPR®. The loading efficiency and integrity of the Ca^2+ flux assay were assessed by comparing the signaling response to ionomycin treatment before and after each run.

The target in test [2] is T2, CXCR2 (Homo sapiens, UniProt P25025).
T2 construct: expressed in transfected cells; host or cells: CHO cells, pcDNA3 vector, crude membranes of stably transfected cells
T2 sequence (P25025 1-360): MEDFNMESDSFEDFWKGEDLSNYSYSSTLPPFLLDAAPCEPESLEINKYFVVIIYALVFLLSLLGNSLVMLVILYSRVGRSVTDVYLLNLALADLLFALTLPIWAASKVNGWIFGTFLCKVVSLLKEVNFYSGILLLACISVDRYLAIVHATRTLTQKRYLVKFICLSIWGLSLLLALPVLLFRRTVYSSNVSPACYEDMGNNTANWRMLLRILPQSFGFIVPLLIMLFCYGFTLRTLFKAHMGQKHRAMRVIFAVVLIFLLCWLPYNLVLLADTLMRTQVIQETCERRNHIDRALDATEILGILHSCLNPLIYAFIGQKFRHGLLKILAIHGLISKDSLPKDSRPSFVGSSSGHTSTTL
Kind of test: CXCR2 membrane radioligand (125I-Groα) saturation binding. The note with it: membranes of CHO cells transfected with CXCR2, pcDNA3 vector; 125I-Groα 0-2 nM (FIG. 7A). The method, then: FIG. 7A is a graph depicting CXCR2 membrane radioligand saturation binding for membranes of CHO cells transfected with CXCR2 encoded by the mammalian expression vector pcDNA3. Specifically, 5 μg of GPCR membrane preps were incubated with increasing concentrations (0-2 nM) of ^125I-labeled ligand Groα (PerkinElmer, Wellesley, Mass.) in the absence or presence of an excess amount of cold ligand Groα.
FIG. 7B is a graph depicting CXCR2 membrane radioligand saturation binding for membranes of CHEM-1 cells transfected with CXCR2 encoded by the expression vector pHS. Specifically, 5 μg of GPCR membrane preparation was incubated with increasing concentrations (0-2 nM) of ^125I-labeled ligand Groα (PerkinElmer, Wellesley, Mass.) in the absence or presence of an excess amount of cold ligand Groα.
1-5 μg/well of crude membrane protein was thawed and combined with 50,000 to 100,000 cpm of radioligand (2200 Ci/mmol) and cold competitors in assay buffer (50 mM Hepes, 5 mM MgCl2, 1 mM CaCl2, 0.2% BSA) for 2 hours at 25° C. Reactions were performed in 96-well GF/C glass fiber filter plates (PerkinElmer, Cat. No. 6005174, Wellesley, Mass.). […] The filter plate was then dried and counted on a Microbeta liquid scintillation counter (PerkinElmer, Wellesley, Mass.). […]

Test [3] deals with T2, CXCR2. Kind of test: CXCR2 membrane radioligand (125I-Groα) competition binding. The following applies: two site binding curve, FIG. 8A (pcDNA3/CHO membranes); 0.5 nM 125I-Groα; matches high affinity sites of FIG. 8B.
Experimental: After 2 hours of incubation at room temperature, membranes were harvested to a 96-well GF/C filter plate, dried and counted using a Microbeta counter.
1-5 μg/well of crude membrane protein was thawed and combined with 50,000 to 100,000 cpm of radioligand (2200 Ci/mmol) and cold competitors in assay buffer (50 mM Hepes, 5 mM MgCl2, 1 mM CaCl2, 0.2% BSA) for 2 hours at 25° C. Reactions were performed in 96-well GF/C glass fiber filter plates (PerkinElmer, Cat. No. 6005174, Wellesley, Mass.). Binding was terminated by adding 100 μl/well of wash buffer (50 mM Hepes, pH 7.4, 500 mM NaCl, 0.1% BSA) and aspiration through the plate on a cell harvester, followed by three 0.2 ml washes with wash buffer. The filter plate was then dried and counted on a Microbeta liquid scintillation counter (PerkinElmer, Wellesley, Mass.).

T1 sequence (P21554 whole entry): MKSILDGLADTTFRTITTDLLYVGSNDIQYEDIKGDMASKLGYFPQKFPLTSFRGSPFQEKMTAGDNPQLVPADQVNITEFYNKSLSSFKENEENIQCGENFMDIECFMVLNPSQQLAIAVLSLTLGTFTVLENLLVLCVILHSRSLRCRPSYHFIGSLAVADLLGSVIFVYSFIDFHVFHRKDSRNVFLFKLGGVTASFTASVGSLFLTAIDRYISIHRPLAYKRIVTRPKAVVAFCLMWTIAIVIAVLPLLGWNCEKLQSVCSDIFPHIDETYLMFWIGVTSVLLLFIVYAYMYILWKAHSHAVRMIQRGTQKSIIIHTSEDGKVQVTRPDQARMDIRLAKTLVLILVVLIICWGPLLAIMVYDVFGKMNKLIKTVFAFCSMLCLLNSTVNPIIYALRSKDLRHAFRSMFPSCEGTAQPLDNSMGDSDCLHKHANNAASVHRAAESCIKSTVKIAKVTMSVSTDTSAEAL

Regarding `CCCCCCC(C)(C)c1ccc([C@@H]2C[C@H](O)CC[C@H]2CCCO)c(O)c1` [CP55940], in test [1], the “agonist type (efficacy) in FLIPR dose response” value was “partial agonists”.
Take Groα: binding in test [2] was put at a Kd of 0.148 nM. Besides, the Ki in test [3] was 0.22 nM.
